In paper PMC8005443:
pKd: −log10 of the molar value.

Columns and labels:
[1] = biological target: PI3Kγ-RBD (residues 193–316) (human) (UniProt P48736); assay: ITC
[2] = biological target: PI3Kα-RBD (Human PI3Kα residues 157–300) (human) (UniProt P42336); assay: ITC

Q: What does the source list for “KRAS4B^Q61H (from UniProt P01116-2 1-169) (enzyme)”?
A: pKd [1]: 5.59; dH [1]: -2.97 kcal/mol; stoichiometry N [1]: 0.91; pKd [2]: 5.40; dH [2]: -2.59 kcal/mol; stoichiometry N [2]: 1.06

Q: “KRAS4B^G12V (from UniProt P01116-2 1-169) (enzyme)” was tested. Which pKd [1] did it give?
A: 5.62

Q: And the dH [1]?
A: -4.16 kcal/mol

Q: And the stoichiometry N [1]?
A: 0.81

Q: And the pKd [2]?
A: 5.64

Q: What about the dH [2] of the same substance?
A: -3.82 kcal/mol

Q: And the stoichiometry N [2]?
A: 1.07
